Reference: the DeepSol protein solubility set

Assay: soluble on expression in E. coli; label from the status in PepcDB or PDB records

Soluble on expression in E. coli, not soluble:
MGSDKIHHHHHHMIEFDNLTYLHGKPQGTGLLKANPEDFVVVEDLGFEPDGEGEHILVRILKNGCNTRFVADALAKFLKIHAREVSFAGQKDKHAVTEQWLCARVPGKEMPDLSAFQLEGCQVLEYARHKRKLRLGALKGNAFTLVLREVSNRDDVEQRLIDICVKGVPNYFGAQRFGIGGSNLQGAQRWAQTNTPVRDRNKRSFWLSAARSALFNQIVAERLKKADVNQVVDGDALQLAGRGSWFVATTEELAELQRRVNDKELMITAALPGSGEWGTQREALAFEQAAVAAETELQALLVREKVEAARRAMLLYPQQLSWNWWDDVTVEIRFWLPAGSFATSVVRELINTTGDYAHIAE, MGSDKIHHHHHHMIFQLKGKFQHYPWGGRYFIPHFLKLTEVVDQPYAEYWLGAHPAASATIKFGEQWLPLADVIKQAPELLGERSRQQFGDNLPYLLKILDIKQPLSIQLHPNKAQAEYGFNQENRQGIPLEDVRRIYKDRNHKPEMMIALSDFWLLHGFKSITAIQACLAKYPSTSALAKSLVEKSLAVVYAEIMHADQTQLASWLRPIIEQRRADYLADKLKLSDPDYWLLYMTDDLAADAPLDAGLMCFYLFNIVHLKKGEGIYQAANLPHAYLRGQSIELMANSDNVIRGGLTTKWVDIPALLQAVDYRPVRPQIIAAYRDDKTVDQNFYLYPTPQAKDFALQRLTIRQLVENRFVTDSASMLLVMKGSLYIDLGNTSFHLNQGDAVFISADSHVELIGENDGYAIIASLP, MGSDKIHHHHHHMIGQSLFIRGARGVTLTPSGERYFQDVTTILHNLMLATEKAADKSPKDSLYIHSSPSFGLLWLLPRLESFKEKFPMIQVNLSCSYENLHFTRDKIDIDIRHGLPNWTGVEIRTIRNEKLEVLASPKLLERSPVHKPQDLLKKELILSRSTLVTWPQWFAHQGLSIPEFPYTLSFDRSYMSLEAATHGLGFVLESNLLTQNYLESGKLVRVFADELSIPISAHHLVYPRTHQFIPKIELFLNWIHDELAG, MGSDKIHHHHHHMIIDINMHHLPEDLFTNEKILDGFLSTAPRSYGEIASLGTIPETGKRQIILEKPKGYQNLNYVEGDYSLEAKLQAMDDNGVDKAILRVPVWQEWLKVDTCKIVNDNAAEMCKRSAGRLYATACVPPWGGKDNLYELERCVKDLGMVGVQLACHYGQLYLDDEAFKPYMKVLNELNVPVVVHHTPLPVYWQSVYEYTNLRRELGRIIDQATAVGRELFSGMFEEFPNLKFIHTMFGGNWFANYNLLMPHKGKKEEAMLRLDISESDRIKMYLKNNIYFDMTHPASWGKDQVECAIKVCGADHVLFGSSFPVFYNWMSQGIECVKSLDITEKERELITSGNAIRLFKLDV, MGSDKIHHHHHHMIILFGNQKGGCGKTTNCIQFANYLVEKGKEVLVLDLDFQRSLSDRRKEDIATYDNEPKYEVIQTDISNVAKIISDFTKVEQGNLLIDLPGKIDDDALGTILKAADIIICPFKYDKFTMDSTGFFIQVLQYLNVKAKIFFLPNNMRAAVRYETKEQVVDILKQVGFVTDEIPASVAMERINTLTISNECIDKVKNAYDYIIQEGAIK, MGSDKIHHHHHHMIKALLTVSTILVSSHALATDKPADKPWHNEKPTLSTINAPTKVMPMVCKQTQALAYLKELQSGKKDIYSVKSNDHGGKGANDSGWLTWRVDDPTNLIPCPKGGAADTEVGMCWKELNDEPTVIGLVRVAPGTAAPHYHREMECYYGLSGQGLTWAQERMQPFGAGDYIEIPSKAIHYTPNTYDDQDLIYMYWFPLDGKFSTFKYQWPKDVGPGEQLMFDFVPYTNSKTVRSGNDGYGWDVIQKSKK, MGSDKIHHHHHHMIKCIAVDDEPLALEQLTGYIARVPFLQLIASCQDAFSAMQVLSEEEVDLMFVDIHMPDLNGLDLVRSLVVKPLIVFTTAYPEYAVEGFKVDAVDYLLKPFEFQDLLKAADKARRQFEYHLQDNGGGTETDLLEKDGSLFVKSEYKIIRINVADICYIEGMSEYVRIYTDTADKPVVTLLSMRKLEERLPQEMFMRVHRSYIVNLRKITEVSRLRIIFNKNIYIPVGDNYKERFTEYINKICVSS, MGSDKIHHHHHHMIKKSDYPRYIQMLKRRPEFSGFTPDEFNQLEQQMRIKEYPKGQLLFDQADTRSRFYFVISGLLRSERIDETGDFSFYSFIAENKGFPYRGLFHDHEYAYAVNTMTPAVVASFPMAEFENLLTRNSEMMKRVVVEMGQIINENEDQLQQMVTSSASDRVRNALKILGRKLGNQLAGDRWFVPYAITLIELAKMAGTTRETASQVVQRLEADGQIIYEHKHFTIFIK, MGSDKIHHHHHHMIKNLSKAKSTSKTSSTTSETLTPANYYDRWTDQSFMSATWFKKFLACEAEALAELTGKWQPVRDAKALVVGNWLHSYFESKQAHEKFKDEHPESISKRGPTKGQLKSDFKVANAMIQSLTNDHDFNLLYQGDKEVIVTGEIGGYPWKGKIDCLNLKQGYFVDLKTTADIYKVYWNPETREKESFVYAYNYPLQMAVYQELIKQQFGVTCKPYIVAVSKQDPPDKQAIDLPEYRLTNAMNQVLESQQHLQDIIKGEADPIQCGHCAYCRSTKKLESVVSADDLLID, MGSDKIHHHHHHMILKFVIRMGLTISEKIEEIMSSNESNTTLYNISSLEHLHAIFRAYRPHNGFGVVYRGQADCHWKLLPKAGRQEYLLPDDRDLGVFKDWLDRAIAYENVPNYFIEQLALAQHHGLATRLLDWTINPLIACYFACCSYPDKDGVIYILELPKTFATVDLSMETLKECSEVISYRPRQFSPRILNQGGIFTIHNPPDTTIDIGPGRIALDMPNLVQIILGKNLKHDILEMLSDYGIDERYIYPDLDGLSRSLNHSMMRMVRQRVERIDL, MGSDKIHHHHHHMILLNYSQCFCLHNESRQKIAPSCWLNIGVHYMRIQQLRDLLEYVANCRLDMAQLYGRLNNQADSARVKMMLEYFESHQKHVAEKLRDYMDEAPVRVLDTWYKDFVFEDFTKRCQDTMLPANMNEDDVLNLHLDLENRLIGLLEKTVNSTTAEDARTALEGLIRVEKIQQQRLVHSTIRMDDI, MGSDKIHHHHHHMILPDRKQILDRELIRRIADTTISGSGHSDGLSEYASIRKAAFAFVESAVLGDQAYSPIENAELAFIVWILAALDENIITARTIIKARDTVYYYLRLVEHYEDLEEFGSRLGIEISVFGEQIGKDHLYRIGVADFATYASRVTGSKYRLSNQIVREGYVYVDEDVMAKVLREAFVSFMFDTLDQIRYYDAIETIKSVLDDLEKIRESYRKAHNVRMIAGKGDASMFPPCMKEIIKNLESGVNVSHMGRLALASFLHKAGYSEDEIVPYFRNAPDFDENITRYQIKHISGEISGTEYTPPKCETMRSNHLCYMDDDPLCHREWMKHPLTYYEVKRRNRKIR, MGSDKIHHHHHHMINQLMRSVDNLPAFPVTVIKVMDLLSRDDYSIAEVARVISFDQSITANILKVSNSAYFSFGRPIRTVLEAVARLGKENVIRAVQTAGISKFYKTTARGYVSVAADLWEHSVAVALMSQILSRRIYGREDSVLYSAALLHDVGKIIIGAYVYESLEKIQRVVDGRKCSFIEAEEEVIGINHAELGGKITGYWNLPEEICDAIAFHHRPDILDKNSVDMQWIVYLADQLCMMTGIGNGIDGLAYLGISEVLKKFNLREKDLETNMMNLMDDLRNARSILDMV, MGSDKIHHHHHHMIPISLIQETAEGLMDKAAIEIPQDYLDGLQEAARTEDGDLSSFVLKAMLDNYEAAKEDRRAMCGDTGVPRWFVKMGNDASVEGGMVALEAALRRATANATNGVPLRPNRVHPLWRTDHNNNVGIGAPEIEYGFEPEGEWIDLITVHKGGLFGTDYRMLFPSDGLQGIKRFYLDSLMAFGKRGLACQPAIIGIGLGGSKDICMTLGKRASTLRVVGSRNSDPRIAEMEDEFKALGNSIGMGAMGFVGKNMVIDCNIEVGYCHTGGLPMSVHAFCLSSRRAVARIHADGRVEHRTDPDWFTDYQRRETIDWPLAQEAAE, MGSDKIHHHHHHMIPTFVVWSQSMFNDAIVYDRYGPPAAVLTLKRLPLAPLAGGRVRVRMRFAPVNPSDLIPVTGAYRHRTRLPAVAGYEGLGEVVAAPYGSRLAAGQRVLPLRGGGTWQRFIDLDETWLVPVPPAVDDLLAARGYINPLTAMLMLKRWPVAGKHLVLTAASSSCASLLGQWALAMGARSVSGIIRSPQHRARLEQAGIYPILDTDRALMEKVSQHSDLVFDAVGGELANTLLSVLPGSSTLISYGLLSGRPLTQTRGSATVRKFHLREALPTLSVAAWRAAFDEIWQRLPTTSQPPAQRIALNDWRAAIAAAGQPGRGGKILLDFTAG, MGSDKIHHHHHHMIQIGKRYSLEVVKQVNFGVYLNAQELGQVLLPNKFVPTGCNVGDMVDVFLYLDSEDIVIATTQKSLAQVGEYAYLKVIATGPFGAFLDWGLDKDLLLPFGEQHKPAEEGHSYLVYVHANHADERIMASSKLDKFVDKTEAHYTEGEQVNLIIGGTTELGYKAIINNLHWGVIYANEVFQKLRFGQKVTGYIKTMRSDGKIDLVLQKGDKDELDKNARLIINKLRSANGFLPLHDKTDADVIYDKLGMSKKAFKKSIGGLFKAGEITIESEGIRLTV, MGSDKIHHHHHHMIRANRHKRVIAVCGKGGVGKTAFTAMLTRSLLESQKAGDLLVIDADPAMGLPNTLGIQVEKTIGHVRDLIINTARAGIGEDRVDLSSRLDYLVLETLYESDDYAFLAMGRTDSQGCFCSVNDLLKKSIRILSERFDTIVIDGEAGLEQMNRQVMNMVDLLIILSDTSTRGLQTVEHITKMVTEDHVIDCTQLGVVFNRVINNELLLTQAAERIGIEVFGMVPQDQSIVHYDLIGQPLTELPADSLALSAIRDFVANHIVQLDCR, MGSDKIHHHHHHMIRDARVLRAGFVPREVEHRDAEVNHLSSVLEPITNGEPADTAIVTGPSGAGKTCISQFVTERLREEVLDVETTYVNCWRNYTRFRTLYQILDDLGATIDIHRQSTPHDELVDRLQQHDGPRTVVILDEVDQLEDPSVIYDLHSLPQFAIICIANKEEELFSRVDDRLVSRLRSSEHVRMDKYHDEQLYDILSARAKWGLDEDVITDDQLYRIADAAAGDARLAIGILRTAAGKADRENHERITDDILLNAAEDARAQIKQKSLDSLTPHQRVVYDIVREHGPIGPSEIHERYSEDVDDPRTKRTIRTYLSKMEQYNLLEAEGTSRDREYSLVDSAAASPMQ, MGSDKIHHHHHHMIRGLRQIEPYVAGVQPAERKMIKLNTNENAYGASPKVREALANFDVDNLRKYSTLEQADLRAALANNLKVKPEQLMIANGSDDVLSIAFLAFFNNDEPVLFPDLTYGFYKVWADLYRVNYHEIPLAEDFTINTEDYLADNGGIILTNPNAPTGIYKPLNEIEKLLKANQDTVVIIDEAYISFGGQSALSLLNKYNNLVITRTFSKDAALAGLRVGYAIANEPLIAVMNAVKHSINPYSVDLLAERLATAAVEDWSYYQENAKKIQKTRAWFSEQLVKQGFDVLPSQANFVLTKPHDLATAKLFEELEARKIYVRYFPKVERIKDYLRISMGTQEEMEEVVKAIEEIRG
